# Source: IntAct's records for PubMed 31515488
# B1: Protein SPMIP9 (Homo sapiens), Q96LM6 (parent)
# chain: MAGVKYPGQDPVDLDIYQSSHMVDYQPYRKHKYSRVTPQEQAKLDAQLRDKEFYRPIPNPNPKLTDGYPAFKRPHMTAKDLGLPGFFPSQEHEATREDERKFTSTCHFTYPASHDLHLAQGDPNQVLQSADFPCLVDPKHQPAAEMAKGYLLLPGCPCLHCHIVKVPILNRWGPLMPFYQ
# partner: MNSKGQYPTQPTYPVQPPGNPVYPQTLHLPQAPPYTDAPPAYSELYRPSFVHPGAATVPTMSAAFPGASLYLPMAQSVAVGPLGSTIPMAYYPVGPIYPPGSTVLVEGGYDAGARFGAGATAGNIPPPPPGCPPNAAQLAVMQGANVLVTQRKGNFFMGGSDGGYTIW
# B2: Notch homolog 2 N-terminal-like protein A (Homo sapiens), Q7Z3S9 (parent)
# chain: MCVTYHNGTGYCKCPEGFLGEYCQHRDPCEKNRCQNGGTCVAQAMLGKATCRCASGFTGEDCQYSTSHPCFVSRPCLNGGTCHMLSRDTYECTCQVGFTGKECQWTDACLSHPCANGSTCTTVANQFSCKCLTGFTGQKCETDVNECDIPGHCQHGGTCLNLPGSYQCQCLQGFTGQYCDSLYVPCAPSPCVNGGTCRQTGDFTFECNCLPETVRRGTELWERDREVWNGKEHDEN
# partner: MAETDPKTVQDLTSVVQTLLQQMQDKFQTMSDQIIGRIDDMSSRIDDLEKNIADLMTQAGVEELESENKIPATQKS
# B3: DCC-interacting protein 13-beta (Homo sapiens), Q8NEU8 (parent)
# chain: MPAVDKLLLEEALQDSPQTRSLLSVFEEDAGTLTDYTNQLLQAMQRVYGAQNEMCLATQQLSKQLLAYEKQNFALGKGDEEVISTLHYFSKVVDELNLLHTELAKQLADTMVLPIIQFREKDLTEVSTLKDLFGLASNEHDLSMAKYSRLPKKKENEKVKTEVGKEVAAARRKQHLSSLQYYCALNALQYRKQMAMMEPMIGFAHGQINFFKKGAEMFSKRMDSFLSSVADMVQSIQVELEAEAEKMRVSQQELLSVDESVYTPDSDVAAPQINRNLIQKAGYLNLRNKTGLVTTTWERLYFFTQGGNLMCQPRGAVAGGLIQDLDNCSVMAVDCEDRRYCFQITTPNGKSGIILQAESRKENEEWICAINNISRQIYLTDNPEAVAIKLNQTALQAVTPITSFGKKQESSCPSQNLKNSEMENENDKIVPKATASLPEAEELIAPGTPIQFDIVLPATEFLDQNRGSRRTNPFGETEDESFPEAEDSLLQQMFIVRFLGSMAVKTDSTTEVIYEAMRQVLAARAIHNIFRMTESHLMVTSQSLRLIDPQTQVSRANFELTSVTQFAAHQENKRLVGFVIRVPESTGEESLSTYIFESNSEGEKICYAINLGKEIIEVQKDPEALAQLMLSIPLTNDGKYVLLNDQPDDDDGNPNEHRGAESEA
# B4: TBC1 domain family member 22B (Homo sapiens), Q9NU19 (parent)
# chain: MAAENSKQFWKRSAKLPGSIQPVYGAQHPPLDPRLTKNFIKERSKVNTVPLKNKKASSFHEFARNTSDAWDIGDDEEEDFSSPSFQTLNSKVALATAAQVLENHSKLRVKPERSQSTTSDVPANYKVIKSSSDAQLSRNSSDTCLRNPLHKQQSLPLRPIIPLVARISDQNASGAPPMTVREKTRLEKFRQLLSSQNTDLDELRKCSWPGVPREVRPITWRLLSGYLPANTERRKLTLQRKREEYFGFIEQYYDSRNEEHHQDTYRQIHIDIPRTNPLIPLFQQPLVQEIFERILFIWAIRHPASGYVQGINDLVTPFFVVFLSEYVEEDVENFDVTNLSQDMLRSIEADSFWCMSKLLDGIQDNYTFAQPGIQKKVKALEELVSRIDEQVHNHFRRYEVEYLQFAFRWMNNLLMRELPLRCTIRLWDTYQSEPEGFSHFHLYVCAAFLIKWRKEILDEEDFQGLLMLLQNLPTIHWGNEEIGLLLAEAYRLKYMFADAPNHYRR
# B5: Angiomotin (Homo sapiens), Q4VCS5 (parent)
# chain: MRNSEEQPSGGTTVLQRLLQEQLRYGNPSENRSLLAIHQQATGNGPPFPSGSGNPGPQSDVLSPQDHHQQLVAHAARQEPQGQEIQSENLIMEKQLSPRMQNNEELPTYEEAKVQSQYFRGQQHASVGAAFYVTGVTNQKMRTEGRPSVQRLNPGKMHQDEGLRDLKQGHVRSLSERLMQMSLATSGVKAHPPVTSAPLSPPQPNDLYKNPTSSSEFYKAQGPLPNQHSLKGMEHRGPPPEYPFKGMPPQSVVCKPQEPGHFYSEHRLNQPGRTEGQLMRYQHPPEYGAARPAQDISLPLSARNSQPHSPTSSLTSGGSLPLLQSPPSTRLSPARHPLVPNQGDHSAHLPRPQQHFLPNQAHQGDHYRLSQPGLSQQQQQQQQQHHHHHHHQQQQQQQPQQQPGEAYSAMPRAQPSSASYQPVPADPFAIVSRAQQMVEILSDENRNLRQELEGCYEKVARLQKVETEIQRVSEAYENLVKSSSKREALEKAMRNKLEGEIRRMHDFNRDLRERLETANKQLAEKEYEGSEDTRKTISQLFAKNKESQREKEKLEAELATARSTNEDQRRHIEIRDQALSNAQAKVVKLEEELKKKQVYVDKVEKMQQALVQLQAACEKREQLEHRLRTRLERELESLRIQQRQGNCQPTNVSEYNAAALMELLREKEERILALEADMTKWEQKYLEENVMRHFALDAAATVAAQRDTTVISHSPNTSYDTALEARIQKEEEEILMANKRCLDMEGRIKTLHAQIIEKDAMIKVLQQRSRKEPSKTEQLSCMRPAKSLMSISNAGSGLLSHSSTLTGSPIMEEKRDDKSWKGSLGILLGGDYRAEYVPSTPSPVPPSTPLLSAHSKTGSRDCSTQTERGTESNKTAAVAPISVPAPVAAAATAAAITATAATITTTMVAAAPVAVAAAAAPAAAAAPSPATAAATAAAVSPAAAGQIPAAASVASAAAVAPSAAAAAAVQVAPAAPAPVPAPALVPVPAPAAAQASAPAQTQAPTSAPAVAPTPAPTPTPAVAQAEVPASPATGPGPHRLSIPSLTCNPDKTDGPVFHSNTLERKTPIQILGQEPDAEMVEYLI
# partner: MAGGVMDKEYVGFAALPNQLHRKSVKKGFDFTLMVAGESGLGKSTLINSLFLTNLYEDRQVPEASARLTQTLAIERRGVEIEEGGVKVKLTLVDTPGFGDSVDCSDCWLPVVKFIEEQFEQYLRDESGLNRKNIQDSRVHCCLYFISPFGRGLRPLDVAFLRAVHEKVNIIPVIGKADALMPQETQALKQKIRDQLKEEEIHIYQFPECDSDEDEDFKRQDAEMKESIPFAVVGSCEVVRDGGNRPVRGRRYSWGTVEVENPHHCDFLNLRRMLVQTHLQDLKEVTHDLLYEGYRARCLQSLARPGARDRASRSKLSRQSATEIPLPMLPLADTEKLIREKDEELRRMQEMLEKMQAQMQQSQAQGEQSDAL
# B6: Ornithine decarboxylase antizyme 3 (Homo sapiens), Q9UMX2 (parent)
# chain: MPCKRCRPSVYSLSYIKRGKTRNYLYPIWSPYAYYLYCYKYRITLREKMLPRCYKSITYKEEEDLTLQPRSCLQCSESLVGLQEGKSTEQGNHDQLKELYSAGNLTVLATDPLLHQDPVQLDFHFRLTSQTSAHWHGLLCDRRLFLDIPYQALDQGNRESLTATLEYVEEKTNVDSVFVNFQNDRNDRGALLRAFSYMGFEVVRPDHPALPPLDNVIFMVYPLERDVGHLPSEPP
# partner: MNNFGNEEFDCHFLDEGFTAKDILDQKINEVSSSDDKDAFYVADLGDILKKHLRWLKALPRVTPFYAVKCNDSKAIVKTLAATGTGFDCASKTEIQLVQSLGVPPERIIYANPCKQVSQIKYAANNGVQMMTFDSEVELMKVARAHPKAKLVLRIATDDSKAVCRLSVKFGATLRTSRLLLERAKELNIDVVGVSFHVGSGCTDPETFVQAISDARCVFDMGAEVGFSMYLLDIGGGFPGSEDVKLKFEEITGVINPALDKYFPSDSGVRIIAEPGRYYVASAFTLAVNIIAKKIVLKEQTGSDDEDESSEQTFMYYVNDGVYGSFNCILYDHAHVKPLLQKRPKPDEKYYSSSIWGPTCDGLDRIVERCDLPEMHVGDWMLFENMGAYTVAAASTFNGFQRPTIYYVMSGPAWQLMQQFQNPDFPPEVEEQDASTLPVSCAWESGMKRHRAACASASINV
# Variants of: B1
# Conditions: with dazp2_human DAZAP2, Q15038
row,Variant,effect of a mutation on the interaction
1,Y68H,with no effect
2,P177S,with no effect

# Variants of: B2
# Conditions: with hsbp1_human HSBP1, O75506
row,Variant,effect of a mutation on the interaction
1,A115T,with no effect
2,R74Q,with no effect

# Variants of: B3
# Conditions: with cradd_human CRADD
row,Variant,effect of a mutation on the interaction
1,H205R,with no effect

# Variants of: B3
# Conditions: with suv92_human SUV39H2, Q9H5I1
# Chain of suv92_human SUV39H2, Q9H5I1 (Q9H5I1 whole entry): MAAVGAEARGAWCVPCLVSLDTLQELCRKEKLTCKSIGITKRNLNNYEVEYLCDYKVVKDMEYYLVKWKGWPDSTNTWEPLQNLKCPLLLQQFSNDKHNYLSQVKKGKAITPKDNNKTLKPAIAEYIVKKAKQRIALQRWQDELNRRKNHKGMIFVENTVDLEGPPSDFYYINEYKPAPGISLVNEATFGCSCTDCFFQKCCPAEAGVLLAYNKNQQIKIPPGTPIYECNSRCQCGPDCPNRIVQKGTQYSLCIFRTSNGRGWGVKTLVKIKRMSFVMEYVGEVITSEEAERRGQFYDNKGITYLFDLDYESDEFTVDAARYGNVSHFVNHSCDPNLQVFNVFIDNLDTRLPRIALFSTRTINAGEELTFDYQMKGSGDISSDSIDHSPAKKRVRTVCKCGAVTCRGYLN
row,Variant,effect of a mutation on the interaction
1,H205R,with no effect

# Variants of: B3
# Conditions: with rab5c_human RAB5C
row,Variant,effect of a mutation on the interaction
1,K70R,with no effect

# Variants of: B4
# Conditions: with tri23_human TRIM23, P36406
# Chain of tri23_human TRIM23, P36406 (P36406 whole entry): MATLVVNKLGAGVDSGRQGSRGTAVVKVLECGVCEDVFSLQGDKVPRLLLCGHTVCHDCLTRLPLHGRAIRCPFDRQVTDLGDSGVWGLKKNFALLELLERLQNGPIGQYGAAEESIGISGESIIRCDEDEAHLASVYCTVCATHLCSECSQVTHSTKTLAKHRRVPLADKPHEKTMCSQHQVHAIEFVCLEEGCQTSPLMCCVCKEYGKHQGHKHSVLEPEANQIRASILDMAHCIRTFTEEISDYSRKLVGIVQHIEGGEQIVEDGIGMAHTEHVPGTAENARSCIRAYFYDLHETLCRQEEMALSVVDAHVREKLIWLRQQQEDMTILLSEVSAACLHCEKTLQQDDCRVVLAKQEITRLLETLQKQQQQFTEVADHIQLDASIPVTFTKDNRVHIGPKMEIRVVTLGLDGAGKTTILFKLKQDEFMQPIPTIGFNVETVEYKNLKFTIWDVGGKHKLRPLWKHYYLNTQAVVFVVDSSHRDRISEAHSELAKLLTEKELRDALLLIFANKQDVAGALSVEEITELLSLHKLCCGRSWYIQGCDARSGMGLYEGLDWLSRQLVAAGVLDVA
row,Variant,effect of a mutation on the interaction
1,P177A,with no effect

# Variants of: B4
# Conditions: with ikzf3_human IKZF3, Q9UKT9
# Chain of ikzf3_human IKZF3, Q9UKT9 (Q9UKT9 whole entry): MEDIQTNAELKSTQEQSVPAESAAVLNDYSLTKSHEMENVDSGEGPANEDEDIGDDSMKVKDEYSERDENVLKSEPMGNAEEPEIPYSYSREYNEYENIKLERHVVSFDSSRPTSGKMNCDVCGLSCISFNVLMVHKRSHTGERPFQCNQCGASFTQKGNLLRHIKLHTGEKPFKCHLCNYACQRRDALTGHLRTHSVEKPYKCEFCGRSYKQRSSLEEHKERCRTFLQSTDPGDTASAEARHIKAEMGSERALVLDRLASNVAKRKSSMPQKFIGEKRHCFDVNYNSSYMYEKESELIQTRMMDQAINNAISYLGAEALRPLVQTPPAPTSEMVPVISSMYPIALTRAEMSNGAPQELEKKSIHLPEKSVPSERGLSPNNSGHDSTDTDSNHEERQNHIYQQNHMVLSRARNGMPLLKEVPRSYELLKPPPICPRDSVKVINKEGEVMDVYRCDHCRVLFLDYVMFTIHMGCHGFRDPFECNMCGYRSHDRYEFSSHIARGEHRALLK
row,Variant,effect of a mutation on the interaction
1,P177A,with no effect

# Variants of: B5
# Conditions: with sept1_human SEPTIN1, Q8WYJ6
row,Variant,effect of a mutation on the interaction
1,T899A,with no effect

# Variants of: B6
# Conditions: with dcor_human ODC1, P11926
row,Variant,effect of a mutation on the interaction
1,V174A,disrupting interaction strength
